From article PMC6555819, “Comprehensive study of nuclear receptor DNA binding provides a revised framework for understanding receptor specificity” come the findings set out here.

In data set [1] the target is VDR:RXRa (Homo sapiens, UniProt P11473;P19793 full;full). The experiment in a line: no ligand; PBM; 270 nM : 90 nM RXRa; PBS pH 7.4, 2% milk, 0.02% Triton X-100, 1 mM DTT, BSA, 0.4 mg/ml salmon testes DNA. The conditions noted are these: tags: His kept;His cleaved; copies: 1;1; label: surface-attached array probe. The method in brief: (§1)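 Custom Agilent 4×180K protein-binding microarrays carried double-stranded probes. Their 34-nt variable regions held direct-repeat seeds, single-nucleotide variants, half-site ablations and random human genomic background sequences. Arrays were incubated 1 h with ligand-free nuclear receptor dimers in PBS pH 7.4, 2% milk, 0.02% Triton X-100, 1 mM DTT, 0.2 mg/mL BSA and 0.4 mg/ml salmon testes DNA. Antibodies against each partner (one per run) detected binding, and scanned fluorescence was regression-normalized. Binding z-scores use random background probes as reference.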
Sequence of VDR:RXRa (P11473 whole entry, chain 1 of 2): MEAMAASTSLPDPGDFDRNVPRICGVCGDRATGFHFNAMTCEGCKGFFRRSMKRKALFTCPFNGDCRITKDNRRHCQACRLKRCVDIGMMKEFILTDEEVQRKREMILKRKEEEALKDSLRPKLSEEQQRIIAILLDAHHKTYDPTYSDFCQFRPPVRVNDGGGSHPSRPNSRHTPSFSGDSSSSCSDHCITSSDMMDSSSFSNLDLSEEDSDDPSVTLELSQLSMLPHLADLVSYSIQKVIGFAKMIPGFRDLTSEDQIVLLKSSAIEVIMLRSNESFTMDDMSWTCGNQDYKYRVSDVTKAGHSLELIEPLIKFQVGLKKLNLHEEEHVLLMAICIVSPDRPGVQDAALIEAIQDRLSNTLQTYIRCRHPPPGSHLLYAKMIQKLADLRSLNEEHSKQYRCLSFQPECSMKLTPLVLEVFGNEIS
Sequence of VDR:RXRa (P19793 whole entry, chain 2 of 2): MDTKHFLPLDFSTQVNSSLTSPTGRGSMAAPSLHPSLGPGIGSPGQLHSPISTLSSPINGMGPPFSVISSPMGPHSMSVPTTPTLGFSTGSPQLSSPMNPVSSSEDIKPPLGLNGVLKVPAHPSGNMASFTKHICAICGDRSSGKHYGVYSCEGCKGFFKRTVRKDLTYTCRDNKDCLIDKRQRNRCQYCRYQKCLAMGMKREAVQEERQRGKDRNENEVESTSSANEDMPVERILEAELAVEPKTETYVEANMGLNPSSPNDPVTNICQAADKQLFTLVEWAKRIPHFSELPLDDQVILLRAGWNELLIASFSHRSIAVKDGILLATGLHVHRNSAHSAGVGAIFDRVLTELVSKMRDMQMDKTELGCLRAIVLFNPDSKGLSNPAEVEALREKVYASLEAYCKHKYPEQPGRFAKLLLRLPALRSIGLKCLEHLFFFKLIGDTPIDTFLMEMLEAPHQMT

Data set [2] has as its target PPARa:RXRa (Homo sapiens, UniProt Q07869;P19793 full;full). Described as above. The conditions noted are these: tags: GST kept;His cleaved; copies: 1;1; label: surface-attached array probe. The method in brief:
as §1

Data set [3] addresses RARg:RXRa (Homo sapiens, UniProt P13631;P19793 full;full). The description is as above. The conditions noted are these: tags: His kept;His cleaved; copies: 1;1; label: surface-attached array probe. In outline: as §1
The target in data set [4] is RXRa (Homo sapiens, UniProt P19793). The experiment in a line: no ligand; PBM; 180 nM; PBS pH 7.4, 2% milk, 0.02% Triton X-100, 1 mM DTT, BSA, 0.4 mg/ml salmon testes DNA. The note with it: tags: His cleaved; chain copies: 2; label: surface-attached array probe.
Sequence of RXRa (P19793 whole entry): as the sequence (P19793 whole entry, chain 2 of 2) above
Data set [5] addresses RARb:RXRa (Homo sapiens, UniProt P10826;P19793 full;full). Kind of data set: no ligand; PBM; 270 nM : 90 nM RXRa; PBS pH 7.4, 2% milk, 0.02% Triton X-100, 1 mM DTT, BSA, 0.4 mg/ml salmon testes DNA. The conditions noted are these: tags: His kept;His cleaved; copies: 1;1; label: surface-attached array probe. The method in brief:
as §1

In data set [6] the target is FXR:RXRa (Homo sapiens, UniProt Q96RI1;P19793 full;full). Described as above. The conditions noted are these: tags: His kept;His cleaved; copies: 1;1; label: surface-attached array probe. The method in brief: as §1
Sequence of FXR:RXRa (Q96RI1 whole entry, chain 1 of 2): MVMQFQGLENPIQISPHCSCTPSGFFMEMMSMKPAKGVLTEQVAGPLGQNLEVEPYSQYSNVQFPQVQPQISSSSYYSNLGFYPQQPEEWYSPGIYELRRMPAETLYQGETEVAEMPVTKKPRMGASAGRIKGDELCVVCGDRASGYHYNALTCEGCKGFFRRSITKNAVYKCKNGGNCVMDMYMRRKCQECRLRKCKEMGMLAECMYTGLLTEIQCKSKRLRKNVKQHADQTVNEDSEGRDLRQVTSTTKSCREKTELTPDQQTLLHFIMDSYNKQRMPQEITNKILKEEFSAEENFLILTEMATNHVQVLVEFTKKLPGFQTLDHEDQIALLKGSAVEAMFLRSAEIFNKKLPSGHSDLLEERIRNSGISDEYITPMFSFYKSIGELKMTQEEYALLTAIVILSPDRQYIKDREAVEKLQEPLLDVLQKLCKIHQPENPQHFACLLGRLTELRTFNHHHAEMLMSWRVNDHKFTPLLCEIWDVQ
Sequence of FXR:RXRa (P19793 whole entry, chain 2 of 2): as the sequence (P19793 whole entry, chain 2 of 2) above

Sequence of PPARa:RXRa (Q07869 whole entry, chain 1 of 2): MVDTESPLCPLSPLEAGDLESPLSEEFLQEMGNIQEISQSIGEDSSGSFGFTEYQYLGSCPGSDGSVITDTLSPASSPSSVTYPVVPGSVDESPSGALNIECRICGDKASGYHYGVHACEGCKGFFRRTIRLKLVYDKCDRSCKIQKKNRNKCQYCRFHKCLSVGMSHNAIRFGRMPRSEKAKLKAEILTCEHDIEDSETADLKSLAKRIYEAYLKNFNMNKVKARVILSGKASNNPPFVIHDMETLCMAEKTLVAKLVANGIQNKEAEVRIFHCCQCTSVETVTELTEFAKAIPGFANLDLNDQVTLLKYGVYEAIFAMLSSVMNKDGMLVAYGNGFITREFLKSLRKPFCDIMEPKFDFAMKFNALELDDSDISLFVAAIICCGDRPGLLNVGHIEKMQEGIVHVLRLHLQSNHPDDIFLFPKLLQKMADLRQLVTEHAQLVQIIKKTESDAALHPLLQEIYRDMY
Sequence of PPARa:RXRa (P19793 whole entry, chain 2 of 2): as the sequence (P19793 whole entry, chain 2 of 2) above
Sequence of RARg:RXRa (P13631 whole entry, chain 1 of 2): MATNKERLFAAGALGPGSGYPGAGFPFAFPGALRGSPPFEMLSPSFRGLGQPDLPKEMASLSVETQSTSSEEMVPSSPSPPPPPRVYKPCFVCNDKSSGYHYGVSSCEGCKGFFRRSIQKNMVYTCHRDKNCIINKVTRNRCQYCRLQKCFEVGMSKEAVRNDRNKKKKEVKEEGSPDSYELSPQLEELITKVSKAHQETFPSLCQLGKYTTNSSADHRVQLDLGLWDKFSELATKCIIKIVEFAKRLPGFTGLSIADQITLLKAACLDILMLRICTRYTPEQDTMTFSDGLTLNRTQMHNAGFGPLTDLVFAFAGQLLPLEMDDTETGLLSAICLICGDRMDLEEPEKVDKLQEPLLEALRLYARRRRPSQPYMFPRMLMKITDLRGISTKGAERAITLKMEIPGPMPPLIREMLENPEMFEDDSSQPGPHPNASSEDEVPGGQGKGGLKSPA
Sequence of RARg:RXRa (P19793 whole entry, chain 2 of 2): as the sequence (P19793 whole entry, chain 2 of 2) above
Sequence of RARb:RXRa (P10826 whole entry, chain 1 of 2): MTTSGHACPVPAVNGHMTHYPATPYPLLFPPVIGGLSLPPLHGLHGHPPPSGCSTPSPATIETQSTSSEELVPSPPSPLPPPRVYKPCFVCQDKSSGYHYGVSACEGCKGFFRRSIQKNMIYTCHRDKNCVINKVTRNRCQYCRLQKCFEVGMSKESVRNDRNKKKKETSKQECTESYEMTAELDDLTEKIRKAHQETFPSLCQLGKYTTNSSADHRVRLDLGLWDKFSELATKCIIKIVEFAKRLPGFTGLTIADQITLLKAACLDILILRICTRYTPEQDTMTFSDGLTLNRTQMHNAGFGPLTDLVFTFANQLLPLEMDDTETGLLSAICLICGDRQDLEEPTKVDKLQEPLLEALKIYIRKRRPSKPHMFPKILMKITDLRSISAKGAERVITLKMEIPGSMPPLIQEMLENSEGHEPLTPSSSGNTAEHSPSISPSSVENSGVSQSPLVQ
Sequence of RARb:RXRa (P19793 whole entry, chain 2 of 2): as the sequence (P19793 whole entry, chain 2 of 2) above

B1: NRC3_random_hg19_115_o1 (dsDNA)
DNA 1: GCATCACCTGAGGCCAGGAATTCGAACCAGCATGGCGCGATTGACAGCGTAGAATGAAGG
DNA 2: CCTTCATTCTACGCTGTCAATCGCGCCATGCTGGTTCGAATTCCTGGCCTCAGGTGATGC
On to B1, for which the binding signal in data set [1] is -0.3 PBM z-score against 500 random probes; in data set [2], -0.52 PBM z-score against 500 random probes.

B2: NRC3_random_hg19_358_o1 (dsDNA)
DNA 1: GCCTAGCAGCAACCAACCACAATGGCAAGGATGTAGGCGATTGACAGCGTAGAATGAAGG
DNA 2: CCTTCATTCTACGCTGTCAATCGCCTACATCCTTGCCATTGTGGTTGGTTGCTGCTAGGC
Consider B2, for which the results for the binding signal in data set [1] and in data set [3] were -0.81 PBM z-score against 500 random probes and -0.41 PBM z-score against 500 random probes, respectively.

B3: NRC3_random_hg19_353_o1 (dsDNA)
DNA 1: GCATAGAACTTAACTACCACCTCTCATTACCTGGAGGCGATTGACAGCGTAGAATGAAGG
DNA 2: CCTTCATTCTACGCTGTCAATCGCCTCCAGGTAATGAGAGGTGGTAGTTAAGTTCTATGC
As to B3, the results for the binding signal in data set [1] and in data set [2] were 0.31 PBM z-score against 500 random probes and -0.07 PBM z-score against 500 random probes, respectively.

B4: NRC3_random_hg19_130_o1 (dsDNA)
DNA 1: GCGAGATCAAGACCATCCTGGCTAACATGGTGAAACGCGATTGACAGCGTAGAATGAAGG
DNA 2: CCTTCATTCTACGCTGTCAATCGCGTTTCACCATGTTAGCCAGGATGGTCTTGATCTCGC
Take B4: the binding signal is -0.18 PBM z-score against 500 random probes in data set [4] and -0.35 PBM z-score against 500 random probes in data set [1].

B5: NRC3_random_hg19_132_o1 (dsDNA)
DNA 1: GCCAATGCCAGCTACCAGGAGGCTGAGGTGTGAGAGGCGATTGACAGCGTAGAATGAAGG
DNA 2: CCTTCATTCTACGCTGTCAATCGCCTCTCACACCTCAGCCTCCTGGTAGCTGGCATTGGC
As to B5, the binding signal in data set [1] is -0.75 PBM z-score against 500 random probes; in data set [3], -0.61 PBM z-score against 500 random probes.

B6: NRC3_random_hg19_309_o1 (dsDNA)
DNA 1: GCCTTAGCTGGGATCTTATCTGTACAGTATCTGGGAGCGATTGACAGCGTAGAATGAAGG
DNA 2: CCTTCATTCTACGCTGTCAATCGCTCCCAGATACTGTACAGATAAGATCCCAGCTAAGGC
B6: the binding signal in data set [4] was -0.37 PBM z-score against 500 random probes; in data set [5] it was -0.66 PBM z-score against 500 random probes; in data set [1], -0.57 PBM z-score against 500 random probes; in data set [3], -0.47 PBM z-score against 500 random probes.

B7: NRC3_random_hg19_418_o1 (dsDNA)
DNA 1: GCTGTGAGCATCACTTCTTGTTGGTCAGAGTAAGAGGCGATTGACAGCGTAGAATGAAGG
DNA 2: CCTTCATTCTACGCTGTCAATCGCCTCTTACTCTGACCAACAAGAAGTGATGCTCACAGC
Regarding B7, the binding signal in data set [5] was -0.39 PBM z-score against 500 random probes; in data set [1] it was -0.69 PBM z-score against 500 random probes.

B8: NRC3_random_hg19_190_o1 (dsDNA)
DNA 1: GCGCCTCAATTCTAACTTGATTGCTTCCCTAGAGGCGCGATTGACAGCGTAGAATGAAGG
DNA 2: CCTTCATTCTACGCTGTCAATCGCGCCTCTAGGGAAGCAATCAAGTTAGAATTGAGGCGC
Take B8: the binding signal was 0.11 PBM z-score against 500 random probes in data set [1] and 0.46 PBM z-score against 500 random probes in data set [6].

B9: NRC3_random_hg19_438_o1 (dsDNA)
DNA 1: GCTGTCGCCATCAAGCTACCATTGACTTTCTTCACAGCGATTGACAGCGTAGAATGAAGG
DNA 2: CCTTCATTCTACGCTGTCAATCGCTGTGAAGAAAGTCAATGGTAGCTTGATGGCGACAGC
For B9, the binding signal in data set [1] is -0.03 PBM z-score against 500 random probes; in data set [2], 0.12 PBM z-score against 500 random probes.

B10: NRC3_random_hg19_426_o1 (dsDNA)
DNA 1: GCTGGAATCCTAGTGCTTTGGGAGGCTGAGGCTGGAGCGATTGACAGCGTAGAATGAAGG
DNA 2: CCTTCATTCTACGCTGTCAATCGCTCCAGCCTCAGCCTCCCAAAGCACTAGGATTCCAGC
Regarding B10, the binding signal in data set [1] was -0.9 PBM z-score against 500 random probes; in data set [2], -0.97 PBM z-score against 500 random probes.

B11: NRC3_random_hg19_209_o1 (dsDNA)
DNA 1: GCGAGTTTCCAGCAGATGGCCATCACAACAATACTGGCGATTGACAGCGTAGAATGAAGG
DNA 2: CCTTCATTCTACGCTGTCAATCGCCAGTATTGTTGTGATGGCCATCTGCTGGAAACTCGC
For the molecule B11, the binding signal in data set [4] is -0.14 PBM z-score against 500 random probes; in data set [1], -0.22 PBM z-score against 500 random probes; in data set [6], -0.37 PBM z-score against 500 random probes.

B12: NRC3_random_hg19_108_o1 (dsDNA)
DNA 1: GCTAGGAATGTGAGTTTCTCTAAGTTCTATTCCTGGGCGATTGACAGCGTAGAATGAAGG
DNA 2: CCTTCATTCTACGCTGTCAATCGCCCAGGAATAGAACTTAGAGAAACTCACATTCCTAGC
B12: the binding signal in data set [1] is 0.17 PBM z-score against 500 random probes; in data set [3], 0.22 PBM z-score against 500 random probes.

B13: NRC3_random_hg19_54_o1 (dsDNA)
DNA 1: GCAGGTAATGTATTCACAGGTTCTGGGACGTCATTGGCGATTGACAGCGTAGAATGAAGG
DNA 2: CCTTCATTCTACGCTGTCAATCGCCAATGACGTCCCAGAACCTGTGAATACATTACCTGC
Turning to B13, the values for the binding signal in data set [4], in data set [1] and in data set [3] were -0.06 PBM z-score against 500 random probes, -0.18 PBM z-score against 500 random probes and -0.18 PBM z-score against 500 random probes, respectively.

B14: NRC3_random_hg19_27_o1 (dsDNA)
DNA 1: GCTCCCTGCCCAGTTCTGTGCAGGGTGTGCGTGTCTGCGATTGACAGCGTAGAATGAAGG
DNA 2: CCTTCATTCTACGCTGTCAATCGCAGACACGCACACCCTGCACAGAACTGGGCAGGGAGC
For the molecule B14, the binding signal is -0.46 PBM z-score against 500 random probes in data set [5], -0.37 PBM z-score against 500 random probes in data set [1] and -0.32 PBM z-score against 500 random probes in data set [6].

B15: NRC3_random_hg19_381_o1 (dsDNA)
DNA 1: GCCATGAGCGTGGAATGTTCTTCCATTTGTTCATATGCGATTGACAGCGTAGAATGAAGG
DNA 2: CCTTCATTCTACGCTGTCAATCGCATATGAACAAATGGAAGAACATTCCACGCTCATGGC
On to B15, for which the binding signal in data set [5] is -0.87 PBM z-score against 500 random probes; in data set [1] it was -0.43 PBM z-score against 500 random probes; in data set [6], -0.07 PBM z-score against 500 random probes; in data set [3], -0.62 PBM z-score against 500 random probes.

B16: NRC3_wobSeed123_DR5_G26A_o1 (dsDNA)
DNA 1: GCCCTCGGAGGACAACAGGAGGTCAAAGCTGCCAGAGCGATTGACAGCGTAGAATGAAGG
DNA 2: CCTTCATTCTACGCTGTCAATCGCTCTGGCAGCTTTGACCTCCTGTTGTCCTCCGAGGGC
Take B16: the results for the binding signal in data set [1] and in data set [3] were 3.35 PBM z-score against 500 random probes and 4.36 PBM z-score against 500 random probes, respectively.

B17: NRC3_wobSeed50_DR2_T20C_o1 (dsDNA)
DNA 1: GCCCTAGTTGGTCAGGAGGCCACACACCGGATATGAGCGATTGACAGCGTAGAATGAAGG
DNA 2: CCTTCATTCTACGCTGTCAATCGCTCATATCCGGTGTGTGGCCTCCTGACCAACTAGGGC
Consider B17, for which the binding signal is 0.4 PBM z-score against 500 random probes in data set [4] and 0.33 PBM z-score against 500 random probes in data set [1].

B18: NRC3_wobSeed77_DR3_C8A_o1 (dsDNA)
DNA 1: GCACTTAAGGGTCAACGAGGTTATAGCACGCGTATAGCGATTGACAGCGTAGAATGAAGG
DNA 2: CCTTCATTCTACGCTGTCAATCGCTATACGCGTGCTATAACCTCGTTGACCCTTAAGTGC
B18: the figures for the binding signal in data set [1] and in data set [6] were 8.17 PBM z-score against 500 random probes and 7.94 PBM z-score against 500 random probes, respectively.

B19: NRC3_random_hg19_107_o1 (dsDNA)
DNA 1: GCCTCAGGCTGAGTTGTGGTAGTGTAATCATAGCTCGCGATTGACAGCGTAGAATGAAGG
DNA 2: CCTTCATTCTACGCTGTCAATCGCGAGCTATGATTACACTACCACAACTCAGCCTGAGGC
On to B19, for which the binding signal in data set [1] was -0.64 PBM z-score against 500 random probes; in data set [3], -0.79 PBM z-score against 500 random probes.

B20: NRC3_wobSeed124_DR5_o1 (dsDNA)
DNA 1: GCCCTACTGGGCCATTCAGAGGTCATTGATCATATGGCGATTGACAGCGTAGAATGAAGG
DNA 2: CCTTCATTCTACGCTGTCAATCGCCATATGATCAATGACCTCTGAATGGCCCAGTAGGGC
On to B20, for which the binding signal in data set [5] was 3.04 PBM z-score against 500 random probes; in data set [1], 3.94 PBM z-score against 500 random probes.

B21: NRC3_wobSeed124_DR5_C13G_o1 (dsDNA)
DNA 1: GCCCTACTGGGCGATTCAGAGGTCATTGATCATATGGCGATTGACAGCGTAGAATGAAGG
DNA 2: CCTTCATTCTACGCTGTCAATCGCCATATGATCAATGACCTCTGAATCGCCCAGTAGGGC
Regarding B21, the values for the binding signal in data set [1] and in data set [2] were 3.28 PBM z-score against 500 random probes and 3.07 PBM z-score against 500 random probes, respectively.

B22: NRC3_random_hg19_260_o1 (dsDNA)
DNA 1: GCGGAAGTCCTCTTTGCCACATTTCCAACAGATGGCGCGATTGACAGCGTAGAATGAAGG
DNA 2: CCTTCATTCTACGCTGTCAATCGCGCCATCTGTTGGAAATGTGGCAAAGAGGACTTCCGC
Take B22: the binding signal in data set [1] was 0.14 PBM z-score against 500 random probes; in data set [2], 0.42 PBM z-score against 500 random probes.

B23: NRC3_random_hg19_55_o1 (dsDNA)
DNA 1: GCTTGAACGCCTGCTTTGTGCTGATGCAGATCCAGAGCGATTGACAGCGTAGAATGAAGG
DNA 2: CCTTCATTCTACGCTGTCAATCGCTCTGGATCTGCATCAGCACAAAGCAGGCGTTCAAGC
Take B23: the binding signal in data set [1] is -0.59 PBM z-score against 500 random probes; in data set [6] it was -0.23 PBM z-score against 500 random probes.
